Key:
[1] = BTK FAC plasma stability assay, PBS buffer arm; type: physicochemical; conditions: for Plasma stability (h) PBS: incubation to 24 h
Method: (§1) Plasma stability was conducted in Dulbecco's PBS buffer, mouse plasma, rat plasma or human plasma frozen with K3-EDTA from BiolVT). Thawed plasma was centrifuged prior to warming for 5 minutes at 37° C. Working solutions were prepared from 10 mM DMSO solution to 500 µM in acetonitrile:water (1:1); 2 µL of working solution was added to 198 µL blank plasma or PBS and mixed manually. 4×45 µL of spiked matrix was aliquoted into glass incubation plates (96-well DW glass microplate) and sealed with blue silicon/PTFE seal; then incubated on a Thermo shaker (38° C. 300 RPM). Samples were prepared at 0, 2, 6 and 24 h timepoints, by protein precipitation with chilled acetonitrile containing internal standard Glyburide (0.2 µM). Precipitated samples were shaken for 10 minutes and stored at 4° C. until completion of the study. Following precipitation of the terminal sample, samples were frozen at −80° C. for 1 hour. Samples were then thawed prior to centrifugation (20 minutes, 4500 RPM at 4° C.). 50 µL of supernatant of each sample was transferred to 384 well analysis plate containing 30 µL of water. Semi quantitative analysis (analyte: internal standard peak area ratio) was performed by LC-MS/MS using a Sciex QTrap 5500.

[2] = BTK FAC plasma stability assay, mouse plasma; type: in vitro ADME
Method: as §1

[3] = BTK FAC plasma stability assay, rat plasma; type: in vitro ADME
Method: as §1

[4] = BTK FAC plasma stability assay, dog plasma; type: in vitro ADME
[5] = BTK FAC plasma stability assay, cyno plasma; type: in vitro ADME, cynomolgus monkey

SMILES	% Release of degrader after 24 h PBS [1] [%]	Plasma stability (h) PBS [1] [h]	% Release of degrader after 24 h mouse [2] [%]	Plasma stability (h) mouse ([2]; incubation to 24 h) [h]	% Release of degrader after 24 h rat [3] [%]	Plasma stability (h) rat ([3]; incubation to 24 h) [h]	Plasma stability (h) dog [4] [h]	% Release of degrader after 24 h dog [4] [%]	Plasma stability (h) cyno [5] [h]	% Release of degrader after 24 h cyno [5] [%]	half-life at 5 µM ([2]; incubation to 24 h) [h]	half-life at 5 µM ([3]; incubation to 24 h) [h]	half-life at 5 µM ([4]; read-out: Plasma stability (h) dog (converted)) [h]
CCCCCCCCCCCN(C(=O)CCCCCCCCCC(=O)O)C(CCC(=O)NCCOCCOCCOCCOCCOCCOCCOCCOCCOCCOCCOCCOCCC(=O)NCCC(=O)OC(C)(C)c1ccc(C(=O)Nc2cc(F)cc(-c3ncnc4[nH]c(-c5ccc(CCN6CCC7(CC6)CCN(C(=O)c6ccc(OC)c(N8CCC(=O)NC8=O)c6)CC7)cc5)cc34)c2C)c(F)c1)C(=O)O (stereo not drawn) [Example A12, 51-Carboxy-2-(4-((3-(6-(4-(2-(9-(3-(2,4-dioxotetrahydropyrimidin-1(2H)-yl)-4-methoxybenzoyl)-3,9-diazaspiro[5.5]undecan-3-yl)ethyl)phenyl)-7H-pyrrolo[2,3-d]pyrimidin-4-yl)-5-fluoro-2-methylphenyl)carbamoyl)-3-fluorophenyl)-2-methyl-4,8,48,53-tetraoxo-52-undecyl-3,11,14,17,20,23,26,29,32,35,38,41,44-tridecaoxa-7,47,52-triazatrihexacontan-63-oic acid]	0.3	>48	14.2	27.3	2	>49	>48	1.2	44.9	0.5	–	–	–
COc1ccc(C(=O)N2CCC3(CCN(CCc4ccc(-c5cc6c(-c7cc(F)cc(NC(=O)c8ccc(C(C)(C)OC(=O)CNC(=O)CCOCCOCCOCCOCCOCCOCCOCCOCCOCCOCCOCCOCCNC(C)=O)cc8F)c7C)ncnc6[nH]5)cc4)CC3)CC2)cc1N1CCC(=O)NC1=O [Example A33, 2-(4-((3-(6-(4-(2-(9-(3-(2,4-Dioxotetrahydropyrimidin-1(2H)-yl)-4-methoxybenzoyl)-3,9-diazaspiro[5.5]undecan-3-yl)ethyl)phenyl)-7H-pyrrolo[2,3-d]pyrimidin-4-yl)-5-fluoro-2-methylphenyl)carbamoyl)-3-fluorophenyl)propan-2-yl (2-oxo-6,9,12,15,18,21,24,27,30,33,36,39-dodecaoxa-3-azadotetracontan-42-oyl)glycinate]	4.8	>48	27.7	5.1	16.7	2.3	32	10.4	45.7	8.1	–	–	–
CCCCCCCCCCCN(C(=O)CCCCCCCCCC(=O)O)[C@@H](CCC(=O)NCCOCCOCCOCCOCCOCCOCCOCCOCCOCCOCCOCCOCCC(=O)NCCCC(=O)OC(C)(C)c1ccc(C(=O)Nc2cc(F)cc(-c3ncnc4[nH]c(-c5ccc(CCN6CCC7(CC6)CCN(C(=O)c6ccc(OC)c(N8CCC(=O)NC8=O)c6)CC7)cc5)cc34)c2C)c(F)c1)C(=O)O [Example A27, (S)-52-Carboxy-2-(4-((3-(6-(4-(2-(9-(3-(2,4-dioxotetrahydropyrimidin-1(2H)-yl)-4-methoxybenzoyl)-3,9-diazaspiro[5.5]undecan-3-yl)ethyl)phenyl)-7H-pyrrolo[2,3-d]pyrimidin-4-yl)-5-fluoro-2-methylphenyl)carbamoyl)-3-fluorophenyl)-2-methyl-4,9,49,54-tetraoxo-53-undecyl-3,12,15,18,21,24,27,30,33,36,39,42,45-tridecaoxa-8,48,53-triazatetrahexacontan-64-oic acid]	0.3	>48	13.7	28.6	2	–	>48	0.5	26.6	0.4	–	–	–
CCCCCCCCCCCN(C(=O)CCCCCCCCCC(=O)O)C(CCC(=O)NCCOCCOCCOCCOCCOCCOCCOCCOCCOCCOCCOCCOCCOCCOCCOCCOCCC(=O)NCC(=O)OC(C)(C)c1ccc(C(=O)Nc2cc(F)cc(-c3ncnc4[nH]c(-c5ccc(CCN6CCC7(CC6)CCN(C(=O)c6ccc(OC)c(N8CCC(=O)NC8=O)c6)CC7)cc5)cc34)c2C)c(F)c1)C(=O)O (stereo not drawn) [Example A9, 62-Carboxy-2-(4-((3-(6-(4-(2-(9-(3-(2,4-dioxotetrahydropyrimidin-(2H)-yl)-4-methoxybenzoyl)-3,9-diazaspiro[5.5]undecan-3-yl)ethyl)phenyl)-7H-pyrrolo[2,3-d]pyrimidin-4-yl)-5-fluoro-2-methylphenyl)carbamoyl)-3-fluorophenyl)-2-methyl-4,7,59,64-tetraoxo-63-undecyl-3,10,13,16,19,22,25,28,31,34,37,40,43,46,49,52,55-heptadecaoxa-6,58,63-triazatetraheptacontan-74-oic acid]	1.2	>48	15.6	4.6	22.4	6.8	>48	5.7	30.8	3.7	–	–	–
CCCCCCCCCCCN(C(=O)CCCCCCCCCC(=O)O)[C@@H](CCC(=O)NCC(=O)OC(C)(C)c1ccc(C(=O)Nc2cc(F)cc(-c3ncnc4[nH]c(-c5ccc(CCN6CCC7(CC6)CCN(C(=O)c6ccc(OC)c(N8CCC(=O)NC8=O)c6)CC7)cc5)cc34)c2C)c(F)c1)C(=O)O [Example A6, (S)-11-((1-Carboxy-4-((2-((2-(4-((3-(6-(4-(2-(9-(3-(2,4-dioxotetrahydropyrimidin-1(2H)-yl)-4-methoxybenzoyl)-3,9-diazaspiro[5.5]undecan-3-yl)ethyl)phenyl)-7H-pyrrolo[2,3-d]pyrimidin-4-yl)-5-fluoro-2-methylphenyl)carbamoyl)-3-fluorophenyl)propan-2-yl)oxy)-2-oxoethyl)amino)-4-oxobutyl)(undecyl)amino)-11-oxoundecanoic acid]	0.4	>48	37.4	–	21.1	–	–	4.6	–	–	10.7	36.6	12.7
CCCCCCCCCCCN(C(=O)CCCCCCCCCC(=O)O)C(CCC(=O)NCCOCCOCCOCCOCCOCCOCCOCCOCCOCCOCCOCCOCCC(=O)NCC(=O)NCn1c(-c2ccc(CCN3CCC4(CC3)CCN(C(=O)c3ccc(OC)c(N5CCC(=O)NC5=O)c3)CC4)cc2)cc2c(-c3cc(F)cc(NC(=O)c4ccc(C(C)(C)O)cc4F)c3C)ncnc21)C(=O)O (stereo not drawn) [Example A38, 49-Carboxy-1-(6-(4-(2-(9-(3-(2,4-dioxotetrahydropyrimidin-1(2H)-yl)-4-methoxybenzoyl)-3,9-diazaspiro[5.5]undecan-3-yl)ethyl)phenyl)-4-(5-fluoro-3-(2-fluoro-4-(2-hydroxypropan-2-yl)benzamido)-2-methylphenyl)-7H-pyrrolo[2,3-d]pyrimidin-7-yl)-3,6,46,51-tetraoxo-50-undecyl-9,12,15,18,21,24,27,30,33,36,39,42-dodecaoxa-2,5,45,50-tetraazahenhexacontan-61-oic acid]	0.2	>48	0.1	>48	0.1	>48	>48	0.1	–	–	–	–	–
CCCCCCCCCCCN(C(=O)CCCCCCCCCC(=O)O)C(CCC(=O)NCCOCCOCCOCCOCCOCCOCCOCCOCCOCCOCCOCCOCCOCCOCCOCCOCCOCCOCCOCCOCCOCCOCCOCCOCCC(=O)NCC(=O)OC(C)(C)c1ccc(C(=O)Nc2cc(F)cc(-c3ncnc4[nH]c(-c5ccc(CCN6CCC7(CC6)CCN(C(=O)c6ccc(OC)c(N8CCC(=O)NC8=O)c6)CC7)cc5)cc34)c2C)c(F)c1)C(=O)O (stereo not drawn) [Example A32, 86-Carboxy-2-(4-((3-(6-(4-(2-(9-(3-(2,4-dioxotetrahydropyrimidin-1(2H)-yl)-4-methoxybenzoyl)-3,9-diazaspiro[5.5]undecan-3-yl)ethyl)phenyl)-7H-pyrrolo[2,3-d]pyrimidin-4-yl)-5-fluoro-2-methylphenyl)carbamoyl)-3-fluorophenyl)-2-methyl-4,7,83,88-tetraoxo-87-undecyl-3,10,13,16,19,22,25,28,31,34,37,40,43,46,49,52,55,58,61,64,67,70,73,76,79-pentacosaoxa-6,82,87-triazaoctanonacontan-98-oic acid]	1	>48	5.8	27	6.1	20.8	37.3	4.7	–	–	–	–	–
